# According to patent US6159736:
# Test system: Tn5 transposase hyperactive mutant EK54/MA56/LP372 (EK45/MA56/LP372 [sic] in example) E54K,M56A,L372P (Escherichia coli (transposon Tn5)?)
# Assay: cell_activity
# Details: 1 µl electroporated into E. coli MG1655, KanR colonies
substance,measurement,setting,value
released transposable element (PvuII cut) with kanamycin resistance cassette flanked by inverted mosaic ends,activity,"no Mg2+, synaptic complex formed in vitro, with Mg2+ 3.9e3, 10 µl dialyzed without Mg2+ 5.5e5",53000 CFU
linearized plasmid with mosaic-end kanamycin transposon and donor backbone,activity,with Mg2+,6900 CFU
supercoiled plasmid with mosaic-end kanamycin transposon and donor backbone,activity,"with Mg2+, none without transposase",1600 CFU
